Source: article PMC4735842

Biological target: Cereolysin O (CLO) of Bacillus cereus ATCC 11778 (BC1) (Bacillus cereus ATCC 11778 (endogenous in the culture))
Assay: SDS-PAGE with Western blot; retentates of BC1 microaerobic culture supernatants (grown with or without 1 g/L BSA, 3 kDa cut-off filter); boiled 5 min in Laemmli buffer with 50 mM DTT; 4-20% Tris-Glycine gel; blot with rabbit anti-streptolysin O antibody

Substance “Cereolysin O (CLO) of Bacillus cereus ATCC 11778 (BC1) (natural protein)” has a stoichiometry N of 2.
